Test results from the nanobody polyreactivity screen of Harvey et al. (2022).

Experiment: yeast display, Sf9 membrane polyspecificity reagent, FACS + sequencing; frameworks hold sequencing errors
Procedure, shortened: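 Galactose induction of a Saccharomyces cerevisiae BJ5465 synthetic nanobody display library ran 36–48 hours. The cells were then stained for 1 hour at 4 °C with 10% biotinylated, detergent-solubilized Sf9 membrane reagent, pulled down on streptavidin microbeads and FACS-sorted into low and high (top ~1%) gates on expression and reagent-binding fluorescence. Labels for polyreactivity follow the gate of origin.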

Sequence	polyreactivity (PSR sort gate)
QVQLVESGGGLVQAGGSLRLSCAASGRIFSTYAMGWYRQAPGKERELVAAINSIGGRTYYADSVKGRFTISRDNAKNTVYLQMNSMKPEDTAVYYCAASRFRTGQEDDYWGQGTQVTVSS	high polyreactivity
QVQLVESGGGLVQAGGSLRLSCAASGSIIGYYAMGWYRQAPGKERELVAAITASGGSTYYADSVKGRFTISRDNAKNTVYLQMNSLKPEDTAVYYCAAGTHTDYGRYYYWGQGTQVTVSS	low polyreactivity
QVQLVESGGGLVQAGGSLRLSCAASGRILPFNAMGWYRQAPGKERELVAAIRWRGSSTYYADSVKGRFTISRDIAKNTVYLQMNSLKPEDTAVYYCAAPSSVRGKVISADYGYWGQGTQVTVSS	high polyreactivity
QVHLVESGGGLVQAGGSLRLSCAASGLPFSQNAMGWNRQAPGKERELVAAINTSDDSTYYADSVKGRFTISRDNAKNTVYLQMNSLKPEDTAVYDCAVDGYWYGGIFYYWGQGTQVTVSS	low polyreactivity
QVQLVESGGGLVQAGGSLRLSCAASGFTFVYYAMGWYRQAPGKEREFVAAISLSGGSTYYADSVKGRFTISRDNAKNTVYLQMNSLKPEDTAVYYCATDWSLRIERDYGYWGQGTQVTVSS	low polyreactivity
QVHLVESGGGLVQAGGSLRLSCAASGYIFKVNAMGWYRQATRKERELVAAISSDGGSTYADSVKGRFTISRDNAKNTVYLEFYSLKTEDTAVYYCNVDLESERDPPKYVYWGQGTQVTVSS	low polyreactivity
QVQLVESGGGLVQAGGSLRLSCAASGRIFTRNAMGWCRPAPGKERELVAAITYTGANTYYADSVKGRFTISRDNAKNTVYLQMNSLKPEDTAVYYCAADGRVKGWGQGTQVTVSS	high polyreactivity
QVQLQESGGGLVHAGGSLRLSCAASVTISFINMMGWYRQAPGRERELDASINFGANTNYADSVKGRFTISRDNAKNSVYLQMNSLKPEDTAVYYCAVYDFDAYTLYYWGQGTLVTVSS	high polyreactivity
QVQLVESGGGLVQAGGSLRLSCAASGRIFARNTMGWYRQAPGKERELVAAISWGGGRTYYADSVKGRFTISRDNAKNTVYLQMNSLKPEDTAVFYCAAETLQIPRGEYWGQGTQVTVSS	low polyreactivity
QVQLVESGGGLVQAGGSLRLSCAASGRTFARNAMGWYRQAAGKERELVAAITSIGTRTYYADAVKGRFTISRDNAKNTVYLQMNSLKPEDTAVYYCNKKRTADYDYWGQGTQVSVSS	low polyreactivity
QVQLVESGGGLVQAGGSLRLSCAASGRIFGVNAMGWYRQAPGKERELVAAIRYRDGSTYYADSVKGRFIISRDNAKNTVYLQMNSLKPEDTAVYYCNALHQRFYAQPGDYWGQGTQVTVSS	high polyreactivity
QVQLVESGGGLVQAGGSLRLSCAASGSTFGDYAMGWYRQAPGKREFVAAISFSGGNTYYADSVKGRFTISRDNAKNTVYLQMNSLKPEDTAVYYCNASSYPWEYYYLYYGYDYWGQGTQVTVSS	low polyreactivity
QVQLVESGGGLVQAGGSLRLSCAASGSILGGNAMGWYRQAPGKERELVAAITFSGGGTYYADSVKGRFTISRDNAKNTVYLQMNRLKPEDTAVYYCNAFGPDYYHVYPAEDYWGQGTQVTVSS	low polyreactivity
QVQLVESGGGLVQAGGSLRLSCAASGYIFLVYAMGWYRQAPGKERELVAAIDWSDTHTYYADSVKGRFTISRDNAKNTVYLHMNSLKPEDSAVYYCNADDYQYKTWYHLDYWGQGTQVTVSS	low polyreactivity
QVQLVESGGGLVQAGGSLRLSCAASGLTFYKYAMGWYRQAPGKERELVAAITSTGGSTYYADSVKGRFTISRDNAKNTVYLQMNSLKPEDTAVYYCAAQWYTALYYWGQGTQVTVSS	high polyreactivity
QVQLVESGGGLVQAGGSLRLSCAASGLIFTSYAMGWYRQAPGKERELVAAISTGGGRTYYADSVKGRFTISRDNAKNTVYLQMNSLKPEDTAVYYCAADSVTYGYDYWGQGTQVTVSS	high polyreactivity
QVQLVESRGGLVQAGGSLRLSCAASGFIFWYYAMGWYRQAPGKERALVAAINWSGTSTNYADSVKGRFTISRDNAKNTVYLQMNSLIPEDTAVYYCNTRIWSSSYDVTYDYWGQGTQVTVSS	low polyreactivity
QVQLVESGGGLVQAGGSLRLSCAASGNIFSFNDMGWYRQAPGKERELVAAITSSDSTNYADSVKGRFTISRDNAKNTVYLQMNSLKPEDTAVFYCATEILTAARDTVVYQFYLGYYYWGQGTQVTVSS	low polyreactivity
QVQLVESGGGLVQAGGSLRLSCAASGSTFYPNAMGRYRQAPGKERELVAAISRGTRTKYADSVKGRFTISRDNAKNNVYLQMNSLKPEDTAVYYCAADTGTGLDWGQGTQVNVSS	high polyreactivity
QVQLEESGGGLVQAGGSLRLSCAASGYTFESYPMGWYRQAPGKEREFVAVISSSDTSTSYADSVKGRFTISRDNAKNTVYLQMNSLNPEDTAVYYCAAYSSPYYITYYWYNYDYWGQGTQVTVSS	low polyreactivity
QVHLVESGGGLVQAGGSLRLSCAASGSIFGYYTMGWYRQAPGKERELVAGIDFITTSTYYADSVKGRFTISRDNAKNTVSLQMNSQKPEDTAVYYCAAYGPLTGYDYWGQGTQVTVSS	low polyreactivity
QVQLVESGGGLVQAGGSLRLSCAASGRIFVSNAMGWYRQAPGKERELVAGITWTSGSTYYADSVKGRFTISRDNAKNTVYLQMNSLKPEDTAVYYCAAEYCYGNAFDYWGQGTQVTVSS	low polyreactivity

Sequence	polyreactivity (PSR sort gate)
QVQLVESGGGLVQAGGSLRLSCAASGIIYYGYVMGWYRQAPGKERELVATITSSGGSKYYADSVKGRFTISRDNAKNTVYLQMNSLKPEDTAVYYCAADYYYGAWVRHDYWGQCTQVTVSS	low polyreactivity
QVQLVESGGGLVQAGGSLRLSCAASGSTFLRNAMGWYRQAPGKERELVAAISWSAGSTYYADSVKGRFTISRDNAKNTVYLQMNSLKPEDTAVYYCAVDKYVFVSYSFYFEYDYWGQGTQVTVSS	low polyreactivity
QVQLVESGGGLVQAGGSLRLSCAASGRIFRGYLMGWYRQAPGKERELVAVITSGGRTYYADSVKGRFTISRDNAKNTVYLQMNSPKPEDTAVYYCATYPRYKPYYYWGQGTQVTVSS	low polyreactivity
QVQLVESGGGLVQAGGTLRLSCAASGRIFFTNAMRRYRQASGKESELVAAISKSGARTYYADSVKGRFTISRDNAKNTVYLQMNSLKPEDTAVYYCAGDVSVAGYYYWGEGTQVTVSS	high polyreactivity
QVQLVESGGGLVQAGGSLRLRCAASGSILYSYTMGWYRQAPGKERELVAALIRGGRTNYADSVKGRFTISRDNAKNTVYLQMNSLKPEDTAVYYCNTGSYAWSWRRAMDYWGQGTQVTVSS	high polyreactivity
QVQLVESGGGLVQAGGSLRLSCAASGGIFIRYAMGWYRQAPGKEREFVAAIRWRGTNTYYADSVKGRFTISRDNAKNTVYLQMNSLKPEDTAVYYCAARPYYITRYKGMDYWGQGTQVTVSS	high polyreactivity
QVQLVESGGGLVQAGGSLRLSCAASGRTFHRYTMGWYRPAPGKERELVAAISRNGGSTYYADSVKGRFTISRDNAKNTVYLQMNSLKPEDTAVYYCNKPYWSDDYYSWGQGTQVTVSS	high polyreactivity
QVQLVESGGGLVQAGGSLRLSCAASGRTFTWYTMGCYIQAPGKERELVAAISGSGSRTYYADSVKGRFTISRDNAKNTVYLQMNSLKPEDTAVYYCAKDKSARYRYDYWGQGTQVTVSS	low polyreactivity
QVHLVESGGGLVQAGGSLRLSCAASGSIFVYNAMGWYRQAPGKERELVAAIDTVGSTNYADSVKGRFTISRDNAKNTVYLQMNSLKPEDTAVYYCAVVTTYWSFYEQVIPSNYWGQGTQVTVSS	low polyreactivity
QVQLVESGGGLVQAGGSLRLSCAASGFIFAEYAMGWYRQAPGKEREFVASITYSGGRTYYADSVKGRFTISRDNAKNTVYLQMNSLKPEDTAVYYCATARYRYHYYSWGQGTQVTVSS	high polyreactivity
QVQLVESGGGLVQAGGSLRLSCAASGRIFIGNAMGWYRQAPGKERELVAAITWSGDDSTYYADSVKGRFTISRDNAKITVYLQMNSLKTEDTAVYYCAAYSYYYEYNYWGQGTQVTVSS	low polyreactivity
QVQLVESGGGLVQAGGSLRLICAASGRTFVANTMGWYRQAPGKERELVATITWNGGSTYYADSVKGRFTISRDNAKNTVYLQMNSLKPEDTAVYYCAKEAYFRRYYVYRYGYWGQGTQVTVSS	high polyreactivity
QVHLVESGGGLVQAGGSLRLSCAASGYTFYANAMGWYRQAPGKEREFVASITWSGGSTYYADSVKGRFTISRDNAKNTVYLQKNSLKPEDTAVYYCAAESWFKYDYWGQGTQVTVSS	low polyreactivity
QVQLVESGGGLVQAGGSLRLSCAASGSIYTSNAMGWYRQAPGKERELVAVITWRSGRTYYADSVKGRFTISRDNAMNTVYLQMNSLKPEDTAVYYCDALRYPKQKFDSWGQGTQVTVSS	high polyreactivity
QVQLVESGGGLVQAGGSLRLSCAASGFIFHFNAMGWYRQAPGKERELVAAISRTGGTTYYADSVKGRFTISRDNAKNTVYLQMNSLKPEVTAVYYCAAYSTYVQHYDYWGQGTQVTVSS	high polyreactivity
QVQLVESGGGLVQAGGSLRLSCAASGSIFYQYAMGWYRQARGKERELVAAITWDGSRTYYADSVKGRFTISRDNAKNTVYLQMNSLKPEDTAVYYCNANLAWRRYDGTYNYWGQGSQVTVSS	high polyreactivity
QVQLVDSGGGLVQAGGSLRLSCAASGSIFGSYVMGWYRQAPGKERELVAAISSSGASTYYADSVKGRFTISRDNAKNTVYLQMNSLKPEDTAVYYCAAGYVHLYYFHEYYWGQGTQVTVSS	high polyreactivity
QVQLVESGGGLVQAGGSLRLSCAASGSIFRIYAMGWYRQAPGKEREWVAAINSGGITNYADSVKGRFTISRDNAKNTVYLQMNSLKPEDTAVYYCNARQGVYGLYLRAYPYEYWGQATQVTVSS	low polyreactivity
QVQLVESGGGLVQAGGSLRLSCAASGRTFLYYTMGWYRQAPGKERELVAAITSGTSTNYADSVKGRFTISRDNAKNTVYLQMNSLKPEDTAVYYCNKRAARSLNGYPLYGYYYWGQGTQVTVSS	low polyreactivity
QVQLVESGGGLVQAGGSLRLSCAHSGSIFGQNAMGWYRHAPGKVRELVAAIRVSGGSTYYADSVKGRFTISRDNAKNTVYLQMNSLKPEDTAGYYCNARYRGYDGPITHGVTSYYWGQGTQVTVSS	low polyreactivity
QVLLVESGGGLVQAGGSLRLSCAASGYTFHVNAMGWYRQAPGKERELVAAINTSGDSTYYADSLKGRFTISRDNAKNTVYLQMNSLKPEDTAVYYCNAKGSVTRIGMEYDYWGQGTQVTVSW	low polyreactivity
